Test results: patent EP1343909B1

Biological target: plasminogen
Assay: cell-based or functional assay

Substance “Bacteriophages which harbored K2S on gp3 (K2S-φ) (from UniProt P00750 209-562)” has a fibrinogen-dependent enzymatic activity (amidolytic assay with plasminogen and S-2251) of under 0.25 IU/ml.
